What was measured:
Assay in all cases: Kinase Profiling Assay
Format in all cases: biochemical
Settings in all cases: 100 μM peptide
Mer(h) = target: T1, Mer(h) (Homo sapiens, UniProt Q12866)
T1 sequence (Q12866 21-999): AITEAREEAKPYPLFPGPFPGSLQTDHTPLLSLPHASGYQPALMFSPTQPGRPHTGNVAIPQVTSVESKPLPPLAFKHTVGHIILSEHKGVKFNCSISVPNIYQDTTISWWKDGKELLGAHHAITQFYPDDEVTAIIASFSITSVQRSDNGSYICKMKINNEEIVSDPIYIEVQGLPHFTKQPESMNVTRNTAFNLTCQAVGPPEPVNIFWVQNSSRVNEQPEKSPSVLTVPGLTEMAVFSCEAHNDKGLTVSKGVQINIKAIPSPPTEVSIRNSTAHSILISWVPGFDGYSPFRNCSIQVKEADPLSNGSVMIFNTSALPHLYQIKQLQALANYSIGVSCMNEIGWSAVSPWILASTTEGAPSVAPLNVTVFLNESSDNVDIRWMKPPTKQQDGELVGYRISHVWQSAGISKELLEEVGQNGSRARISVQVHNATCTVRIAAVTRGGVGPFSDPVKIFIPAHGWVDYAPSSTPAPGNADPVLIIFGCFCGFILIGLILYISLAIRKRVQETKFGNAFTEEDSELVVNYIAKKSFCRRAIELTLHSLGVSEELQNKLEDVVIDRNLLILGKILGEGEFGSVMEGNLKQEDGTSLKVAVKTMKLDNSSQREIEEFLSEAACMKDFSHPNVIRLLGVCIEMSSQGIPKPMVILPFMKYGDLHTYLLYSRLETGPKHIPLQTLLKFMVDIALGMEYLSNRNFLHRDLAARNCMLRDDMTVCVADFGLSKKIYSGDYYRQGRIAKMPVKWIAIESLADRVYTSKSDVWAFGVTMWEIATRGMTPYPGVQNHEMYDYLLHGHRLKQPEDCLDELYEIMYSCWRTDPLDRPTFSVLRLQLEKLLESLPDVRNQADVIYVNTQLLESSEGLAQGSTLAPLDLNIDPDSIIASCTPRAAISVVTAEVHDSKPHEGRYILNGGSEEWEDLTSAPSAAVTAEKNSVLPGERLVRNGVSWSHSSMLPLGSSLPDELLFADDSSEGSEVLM
Method in brief: (§1)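 MK2 inhibitory peptides were screened for specificity across a commercial panel of 266 human kinases, and each kinase activity measurement was run in duplicate.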

Pim-1(h) = Pim-1(h) (Homo sapiens, UniProt P11309)
Sequence of Pim-1(h) (P11309 whole entry): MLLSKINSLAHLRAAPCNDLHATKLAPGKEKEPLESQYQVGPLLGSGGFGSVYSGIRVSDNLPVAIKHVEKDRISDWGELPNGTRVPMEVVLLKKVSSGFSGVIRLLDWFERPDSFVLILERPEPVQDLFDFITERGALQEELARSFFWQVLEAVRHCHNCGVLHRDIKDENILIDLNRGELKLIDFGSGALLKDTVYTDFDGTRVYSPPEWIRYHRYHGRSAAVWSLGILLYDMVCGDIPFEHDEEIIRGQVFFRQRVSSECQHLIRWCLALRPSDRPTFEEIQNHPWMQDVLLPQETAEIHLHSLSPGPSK
Method in brief: as §1

ASK1(h) = target: T2, ASK1(h) (Homo sapiens, UniProt Q99683)
T2 sequence (Q99683 1-1374): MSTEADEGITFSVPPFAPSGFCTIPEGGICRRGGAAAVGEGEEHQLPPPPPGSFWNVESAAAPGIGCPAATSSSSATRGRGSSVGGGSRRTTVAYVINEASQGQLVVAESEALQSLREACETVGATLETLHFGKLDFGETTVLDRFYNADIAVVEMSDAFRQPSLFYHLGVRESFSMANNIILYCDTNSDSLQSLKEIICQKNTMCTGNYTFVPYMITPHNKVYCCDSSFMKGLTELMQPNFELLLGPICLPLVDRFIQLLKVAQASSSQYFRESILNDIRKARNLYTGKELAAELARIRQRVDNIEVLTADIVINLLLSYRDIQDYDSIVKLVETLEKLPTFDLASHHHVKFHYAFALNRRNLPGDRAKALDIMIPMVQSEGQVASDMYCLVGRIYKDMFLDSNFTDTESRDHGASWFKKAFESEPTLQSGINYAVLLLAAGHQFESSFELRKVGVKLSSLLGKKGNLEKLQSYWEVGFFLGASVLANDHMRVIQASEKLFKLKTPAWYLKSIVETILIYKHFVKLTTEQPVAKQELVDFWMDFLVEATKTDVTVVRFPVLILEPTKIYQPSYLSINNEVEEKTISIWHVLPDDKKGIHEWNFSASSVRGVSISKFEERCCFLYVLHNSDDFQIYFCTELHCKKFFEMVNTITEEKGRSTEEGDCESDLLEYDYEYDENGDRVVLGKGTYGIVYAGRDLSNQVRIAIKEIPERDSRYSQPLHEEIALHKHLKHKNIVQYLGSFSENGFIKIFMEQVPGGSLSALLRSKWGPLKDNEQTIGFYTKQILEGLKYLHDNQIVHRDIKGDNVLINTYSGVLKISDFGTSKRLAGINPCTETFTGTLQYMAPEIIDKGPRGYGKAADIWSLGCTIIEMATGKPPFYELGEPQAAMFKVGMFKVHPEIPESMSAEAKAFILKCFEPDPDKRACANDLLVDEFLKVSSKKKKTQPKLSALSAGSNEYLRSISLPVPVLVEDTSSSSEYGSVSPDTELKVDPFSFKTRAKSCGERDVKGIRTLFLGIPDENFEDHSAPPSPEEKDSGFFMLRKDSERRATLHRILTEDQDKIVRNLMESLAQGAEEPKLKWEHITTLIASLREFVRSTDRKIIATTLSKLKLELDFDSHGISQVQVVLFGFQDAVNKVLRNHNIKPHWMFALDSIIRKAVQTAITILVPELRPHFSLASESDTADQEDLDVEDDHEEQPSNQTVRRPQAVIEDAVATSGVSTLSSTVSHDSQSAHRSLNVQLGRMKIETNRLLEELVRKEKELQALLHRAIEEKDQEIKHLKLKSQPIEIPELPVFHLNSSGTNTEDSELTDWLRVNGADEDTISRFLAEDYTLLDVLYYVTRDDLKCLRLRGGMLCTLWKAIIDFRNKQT
Method in brief: as §1

PKBβ(h) = PKBβ(h) (Homo sapiens, UniProt P31751)
Sequence of PKBβ(h) (P31751 whole entry): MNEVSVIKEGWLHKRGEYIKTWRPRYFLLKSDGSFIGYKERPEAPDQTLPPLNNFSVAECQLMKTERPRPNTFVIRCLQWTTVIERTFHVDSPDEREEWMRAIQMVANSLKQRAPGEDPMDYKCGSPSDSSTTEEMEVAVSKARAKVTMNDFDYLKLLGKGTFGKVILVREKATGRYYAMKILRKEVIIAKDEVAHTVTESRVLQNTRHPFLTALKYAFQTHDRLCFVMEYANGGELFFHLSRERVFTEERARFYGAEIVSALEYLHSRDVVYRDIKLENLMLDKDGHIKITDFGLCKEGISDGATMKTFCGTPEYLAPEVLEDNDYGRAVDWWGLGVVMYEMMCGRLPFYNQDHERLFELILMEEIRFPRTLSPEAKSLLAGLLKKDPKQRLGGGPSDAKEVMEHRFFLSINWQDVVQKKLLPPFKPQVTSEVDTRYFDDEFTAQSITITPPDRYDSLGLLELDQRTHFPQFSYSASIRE
Method in brief: as §1

EGFR(L858R)(h) = EGFR(L858R)(h) (Homo sapiens, UniProt P00533, L858R)
Method in brief: as §1

MLCK(h) = MLCK(h) (Homo sapiens, UniProt Q9H1R3)
Sequence of MLCK(h) (Q9H1R3 2-596 limits assumed): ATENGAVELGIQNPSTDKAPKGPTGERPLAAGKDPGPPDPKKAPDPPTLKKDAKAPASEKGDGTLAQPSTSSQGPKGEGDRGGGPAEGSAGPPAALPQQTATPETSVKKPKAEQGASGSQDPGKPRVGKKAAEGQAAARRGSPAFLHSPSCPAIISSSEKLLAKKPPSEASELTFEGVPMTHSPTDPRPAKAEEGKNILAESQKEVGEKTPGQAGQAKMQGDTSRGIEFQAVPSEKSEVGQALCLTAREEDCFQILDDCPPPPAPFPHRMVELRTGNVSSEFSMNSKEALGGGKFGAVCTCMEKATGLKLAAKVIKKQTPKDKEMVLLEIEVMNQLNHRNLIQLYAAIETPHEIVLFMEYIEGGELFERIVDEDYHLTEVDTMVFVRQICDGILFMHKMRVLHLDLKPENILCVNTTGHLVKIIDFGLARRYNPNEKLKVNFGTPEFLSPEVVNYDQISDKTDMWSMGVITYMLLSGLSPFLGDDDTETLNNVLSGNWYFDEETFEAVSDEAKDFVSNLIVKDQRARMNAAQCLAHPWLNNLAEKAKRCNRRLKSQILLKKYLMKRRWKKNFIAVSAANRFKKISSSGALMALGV
Method in brief: as §1

CDK2/cyclinE(h) = CDK2/cyclinE(h) (Homo sapiens, UniProt P24941)
Method in brief: as §1

PKBγ(h) = PKBγ(h) (Homo sapiens, UniProt Q9Y243)
Sequence of PKBγ(h) (Q9Y243 whole entry): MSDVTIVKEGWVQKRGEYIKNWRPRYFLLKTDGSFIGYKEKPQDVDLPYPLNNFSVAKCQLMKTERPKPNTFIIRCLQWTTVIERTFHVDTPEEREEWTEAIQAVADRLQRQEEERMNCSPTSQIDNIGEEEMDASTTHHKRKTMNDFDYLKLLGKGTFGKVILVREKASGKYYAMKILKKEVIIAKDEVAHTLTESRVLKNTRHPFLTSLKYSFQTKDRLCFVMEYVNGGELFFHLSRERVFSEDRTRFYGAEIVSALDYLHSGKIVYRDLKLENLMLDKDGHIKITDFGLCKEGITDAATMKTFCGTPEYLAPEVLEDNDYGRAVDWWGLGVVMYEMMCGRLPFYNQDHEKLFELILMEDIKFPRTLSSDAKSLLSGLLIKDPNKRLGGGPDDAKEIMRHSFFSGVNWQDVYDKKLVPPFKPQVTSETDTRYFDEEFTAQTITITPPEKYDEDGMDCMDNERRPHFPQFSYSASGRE
Method in brief: as §1

YARAAARQARAKALNRQLGVA (Mammalian) [MMI-0200]
Mer(h) % activity (Mer(h)): 90%
Pim-1(h) % activity (Pim-1(h)): 18%
ASK1(h) % activity (ASK1(h)): 101%
PKBβ(h) % activity (PKBβ(h)): 250%
EGFR(L858R)(h) % activity (EGFR(L858R)(h)): 120%

HRRIKAWLKKIKALARQLGVAA (Mammalian) [MMI-0500]
MLCK(h) % activity (MLCK(h)): 0%
Mer(h) % activity (Mer(h)): 17%
CDK2/cyclinE(h) % activity (CDK2/cyclinE(h)): 19%
Pim-1(h) % activity (Pim-1(h)): 0%
ASK1(h) % activity (ASK1(h)): −4%
PKBβ(h) % activity (PKBβ(h)): 21%
PKBγ(h) % activity (PKBγ(h)): 20%
EGFR(L858R)(h) % activity (EGFR(L858R)(h)): 26%

KAFAKLAARLYRKALARQLGVAA [MMI-0400]
MLCK(h) % activity (MLCK(h)): 1%
Mer(h) % activity (Mer(h)): 50%
CDK2/cyclinE(h) % activity (CDK2/cyclinE(h)): 83%
Pim-1(h) % activity (Pim-1(h)): 7%
ASK1(h) % activity (ASK1(h)): 69%
PKBβ(h) % activity (PKBβ(h)): 98%
PKBγ(h) % activity (PKBγ(h)): 41%
EGFR(L858R)(h) % activity (EGFR(L858R)(h)): 52%

FAKLAARLYRKALARQLGVAA [MMI-0300]
MLCK(h) % activity (MLCK(h)): 2%
Mer(h) % activity (Mer(h)): 52%
CDK2/cyclinE(h) % activity (CDK2/cyclinE(h)): 94%
Pim-1(h) % activity (Pim-1(h)): 8%
ASK1(h) % activity (ASK1(h)): 80%
PKBβ(h) % activity (PKBβ(h)): 84%
PKBγ(h) % activity (PKBγ(h)): 20%
